The source of these data is patent US10618965 (dated 2020).

Substitutions are numbered along the chain they refer to.

Sequences and labels used below:
T1: human FcgRIIb (human)
T1 chain: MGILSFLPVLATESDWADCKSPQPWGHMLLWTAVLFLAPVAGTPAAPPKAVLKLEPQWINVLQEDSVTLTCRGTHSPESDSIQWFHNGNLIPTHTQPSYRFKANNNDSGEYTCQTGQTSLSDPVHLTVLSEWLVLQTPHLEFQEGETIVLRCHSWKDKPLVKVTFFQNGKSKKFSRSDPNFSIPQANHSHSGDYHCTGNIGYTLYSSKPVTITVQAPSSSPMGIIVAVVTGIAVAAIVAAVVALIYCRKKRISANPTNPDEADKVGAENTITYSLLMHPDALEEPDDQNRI

T2: human FcgRIIa(R) (human)
T2 chain: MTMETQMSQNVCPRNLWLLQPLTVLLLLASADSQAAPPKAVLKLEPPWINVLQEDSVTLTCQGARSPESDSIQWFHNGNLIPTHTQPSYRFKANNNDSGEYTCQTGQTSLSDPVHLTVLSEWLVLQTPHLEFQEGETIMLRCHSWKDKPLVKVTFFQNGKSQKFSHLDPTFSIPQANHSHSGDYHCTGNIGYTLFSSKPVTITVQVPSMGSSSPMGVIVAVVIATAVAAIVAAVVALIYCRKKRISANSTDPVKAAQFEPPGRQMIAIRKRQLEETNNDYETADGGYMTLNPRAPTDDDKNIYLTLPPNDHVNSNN

B1: F821 (antibody)
chain 1: QVQLQESGPGLVKPSETLSLTCAVSGHSISHDHAWSWVRQPPGEGLEWIGFISYSGITNYNPSLQGRVTISRDNSKNTLYLQMNSLRAEDTAVYYCARSLARTTAMDYWGEGTLVTVSSASTKGPSVFPLAPSSKSTSGGTAALGCLVKDYFPEPVTVSWNSGALTSGVHTFPAVLQSSGLYSLSSVVTVPSSSLGTQTYICNVNHKPSNTKVDKKVEPKSCDKTHTCPPCPAPELRGGPKVFLFPPKPKDTLYISRTPEVTCVVVDVSHEDPEVKFNWYVDGVEVHNAKTKPREEQYNSTYRVVSVLTVLHQDWLNGKEYKCKVSNKALPAPIEKTISKAKGQPREPQVYTLPPSRDELTKNQVSLTCLVKGFYPSDIAVEWESNGQPENNYKTTPPVLDSDGSFFLYSKLTVDKSRWQQGNVFSCSVMHEALHYHYTQKSLSLSP
chain 2: not shown
B2: F939 (antibody)
chain 1: B1 chain 1 with Y438V
chain 2: not shown
B3: F1009 (antibody)
chain 1: B1 chain 1 with T252V, T309Q, V310P, Q313A, Y438V
chain 2: not shown
B4: IgG1-F157 (antibody)
chain 1: B1 chain 1 with R237L, K241S, Y254M, P259A, V310P, M430L
chain 2: not shown
B5: IgG1-F424 (antibody)
chain 1: B1 chain 1 with R237L, Y254M, P259A, V310P, M430L
chain 2: not shown
B6: IL6R-PD081 (antibody)
chain 1: B1 chain 1 with R237L, G239E, P240D, K241S
chain 2: DIQMTQSPSSLSASVGDRVTITCRASQDISSYLNWYQQKPGKAPKLLIYYTSRLHSGVPSRFSGSGSGTDFTFTISSLQPEDIATYYCQQGNTLPYTFGQGTKVEIK
B7: IL6R-PD094 (antibody)
chain 1: B1 chain 1 with R237L, G239W, P240D, K241S
chain 2: B6 chain 2
B8: IL6R-PD097 (antibody)
chain 1: B1 chain 1 with R237L, P240D, K241D
chain 2: B6 chain 2
B9: IL6R-PD079 (antibody)
chain 1: B1 chain 1 with R237L, G239A, P240D, K241S
chain 2: B6 chain 2
B10: IL6R-PD042 (antibody)
chain 1: B1 chain 1 with L236W, R237L, P240D, K241S
chain 2: B6 chain 2
B11: IL6R-PD086 (antibody)
chain 1: B1 chain 1 with R237L, G239L, P240D, K241S
chain 2: B6 chain 2
B12: IL6R-PD080 (antibody)
chain 1: B1 chain 1 with R237L, G239A, P240D, K241S
chain 2: B6 chain 2
B13: IL6R-PD087 (antibody)
chain 1: B1 chain 1 with R237L, G239M, P240D, K241S
chain 2: B6 chain 2
B14: IL6R-PD082 (antibody)
chain 1: B1 chain 1 with R237L, G239F, P240D, K241S
chain 2: B6 chain 2
B15: IL6R-PD043 (antibody)
chain 1: B1 chain 1 with L236Y, R237L, P240D, K241S
chain 2: B6 chain 2
B16: IL6R-PD095 (antibody)
chain 1: B1 chain 1 with R237L, G239Y, P240D, K241S
chain 2: B6 chain 2
B17: F39 (antibody)
chain 1: B1 chain 1 with R237L, K241S, S256T
chain 2: not shown
B18: F38 (antibody)
chain 1: B1 chain 1 with R237L, K241S, S256T, Y436W
chain 2: not shown
B19: F1315 (antibody)
chain 1: B1 chain 1 with R237L, G239K, Y438V
chain 2: not shown
B20: F1324 (antibody)
chain 1: B1 chain 1 with L236A, R237A, K241S, Y438V
chain 2: not shown
B21: F1318 (antibody)
chain 1: B1 chain 1 with R237L, P331R, Y438V
chain 2: not shown
B22: F1316 (antibody)
chain 1: B1 chain 1 with R237L, G239R, Y438V
chain 2: not shown
B23: F1325 (antibody)
chain 1: B1 chain 1 with L236A, R237A, K241S, N299A, Y438V
chain 2: not shown
B24: IgG1-v1 (antibody)
chain 1: not shown
chain 2: B6 chain 2
B25: IgG1-v5 (antibody)
chain 1: B1 chain 1 with R237L, P240D, K241S, Y254M, S269E, L330F, Y436N
chain 2: B6 chain 2
B26: IgG1-v3 (antibody)
chain 1: not shown
chain 2: B6 chain 2
B27: IgG1-v4 (antibody)
chain 1: not shown
chain 2: B6 chain 2
B28: IgG1-v2 (antibody)
chain 1: not shown
chain 2: B6 chain 2

Sequence of human FcgRIa (human) (chain, as listed by the source): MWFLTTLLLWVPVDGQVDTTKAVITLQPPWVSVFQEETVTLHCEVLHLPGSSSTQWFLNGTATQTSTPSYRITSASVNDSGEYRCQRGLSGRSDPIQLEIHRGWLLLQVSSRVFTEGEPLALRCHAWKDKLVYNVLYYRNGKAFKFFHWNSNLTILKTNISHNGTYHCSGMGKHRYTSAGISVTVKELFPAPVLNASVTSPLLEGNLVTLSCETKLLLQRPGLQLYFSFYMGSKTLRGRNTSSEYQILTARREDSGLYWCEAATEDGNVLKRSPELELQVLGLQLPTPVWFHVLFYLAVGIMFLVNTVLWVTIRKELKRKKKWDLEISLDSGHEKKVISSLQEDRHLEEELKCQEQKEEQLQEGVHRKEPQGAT
Sequence of human FcRn (with beta2-microglobulin) (human) (chain, as listed by the source, chain 1 of 2): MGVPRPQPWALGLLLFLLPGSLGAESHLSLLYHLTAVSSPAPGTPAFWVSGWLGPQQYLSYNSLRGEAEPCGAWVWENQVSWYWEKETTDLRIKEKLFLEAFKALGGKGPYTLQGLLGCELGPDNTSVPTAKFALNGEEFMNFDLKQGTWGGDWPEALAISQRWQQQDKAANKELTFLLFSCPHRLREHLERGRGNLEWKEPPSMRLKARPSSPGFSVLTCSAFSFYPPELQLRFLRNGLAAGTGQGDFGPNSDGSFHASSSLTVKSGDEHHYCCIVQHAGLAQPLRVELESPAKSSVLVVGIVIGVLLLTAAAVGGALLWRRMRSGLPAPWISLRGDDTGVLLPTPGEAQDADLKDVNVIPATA
Sequence of human FcRn (with beta2-microglobulin) (human) (chain, as listed by the source, chain 2 of 2): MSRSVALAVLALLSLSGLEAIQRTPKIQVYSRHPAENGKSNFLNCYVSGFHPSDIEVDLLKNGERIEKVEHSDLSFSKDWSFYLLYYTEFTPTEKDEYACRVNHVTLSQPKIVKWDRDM

One test has as its target human FcRn (with beta2-microglobulin) (human). Briefly: SPR, pH 7.0. For orientation: In SPR one partner is held on a chip, and binding of the other changes the refractive index at the surface.
As usually defined, the Kd is the constant that tells how readily two partners part at equilibrium. As to B1, the Kd worked out at 310 nM. In other words, the sub-micromolar range.
Same read-out and setting: the same measure for B2: 150 nM; for B3: 12 nM.

The next test shares this target. Briefly: SPR, pH 7.0. The source holds these as a separate data set.
B4: the dissociation constant (Kd) was found to be 150 nM. In other words, the sub-micromolar range.
Same read-out and setting: the same measure for B5: 94 nM.

The next test has as its target human FcgRIa (human). Briefly: SPR.
With B6, the equilibrium dissociation constant (Kd) was 340 nM.
Still for that read-out and setting: the same measure for B7: 36 nM; for B8: 4.9 nM; for B9: 140 nM.
B10 had a Kd of 63 nM.
The same measure, in the same setting: for B11 the value was 120 nM.
Molecule B12 had a dissociation constant (Kd) of 140 nM.
Still for that read-out and setting: the same measure for B13: 52 nM; for B14: 52 nM.
Same read-out and setting: the same measure for B15: 75 nM.
Take B16: the Kd was determined as 93 nM.

The target of the next test is T1, human FcgRIIb. Briefly: SPR.
In the case of B6, the Kd worked out at 3600 nM.
On the same count and under the same terms, the same measure for B7: 2300 nM; for B8: 1400 nM.
Still for that read-out and setting: for B9 the value was 3000 nM.
Same read-out and setting: for B10 the value was 2000 nM.
As for B11, the equilibrium dissociation constant (Kd) came out at 2600 nM.
Still for that read-out and setting: for B12 the value was 2000 nM; for B13, 2900 nM.
The same measure, in the same setting: the same measure for B14: 3400 nM; for B15: 1600 nM; for B16: 2300 nM.

The next test has as its target T2, human FcgRIIa(R). Briefly: SPR.
B6 gave a Kd of 38000 nM. In other words, the double-digit micromolar range.
The same measure, in the same setting: for B7 the value was 7200 nM; for B8, 3500 nM; for B9, 32000 nM.
On to B10, for which the dissociation constant (Kd) came out at 16000 nM.
Same read-out and setting: the same measure for B11: 18000 nM; for B12: 21000 nM; for B13: 22000 nM.
For the molecule B14, binding was characterised by a dissociation constant (Kd) of 14000 nM.
The same measure, in the same setting: the same measure for B15: 26000 nM; for B16: 7900 nM.

A further test addresses human FcRn (with beta2-microglobulin) (human). Briefly: SPR, neutral pH.
B17: binding was put at a Kd of 300 nM.
On the same count and under the same terms, the same measure for B18: 100 nM.

The next test has the same target. Briefly: SPR, pH 7.0. The source holds these as a separate data set.
With B19, the Kd worked out at 152 nM.
Same read-out and setting: the same measure for B20: 132 nM; for B21: 143 nM; for B22: 149 nM.
Same read-out and setting: the same measure for B2: 153 nM; for B3: 12 nM.
The same measure, in the same setting: the same measure for B23: 213 nM.

Another test addresses T1, human FcgRIIb. Briefly: SPR. This is another data set of the same source.
B24 showed a Kd of 1100 nM.
The same measure, in the same setting: the same measure for B25: 450 nM; for B26: 13 nM.

The target in a further test is human FcgRIIIa(V) (human). Briefly: SPR.
Sequence of human FcgRIIIa(V) (human) (chain, as listed by the source): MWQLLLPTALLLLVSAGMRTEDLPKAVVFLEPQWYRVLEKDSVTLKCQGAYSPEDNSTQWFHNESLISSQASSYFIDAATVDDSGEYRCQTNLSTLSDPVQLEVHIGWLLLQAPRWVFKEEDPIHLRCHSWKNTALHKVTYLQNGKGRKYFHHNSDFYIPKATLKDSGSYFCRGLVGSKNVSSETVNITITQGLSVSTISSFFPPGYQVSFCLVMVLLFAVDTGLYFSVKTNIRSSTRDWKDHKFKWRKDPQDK
The molecule B9 gave a dissociation constant (Kd) of 37000 nM.
B11 registered a Kd of 41000 nM.
The same measure, in the same setting: the same measure for B13: 37000 nM; for B14: 43000 nM.

For another test, the target named is T1, human FcgRIIb. Briefly: SPR. This is another data set of the same source.
B24 displayed a Kd of 1100 nM.
Same read-out and setting: for B27 the value was 11000 nM; for B28, 2300 nM.
